Laboratory results published in the DeepSol protein solubility set.

assay: soluble on expression in E. coli; label from the status in PepcDB or PDB records

| Sequence | soluble on expression in E. coli |
| --- | --- |
| ETVLADRFERLVELVTMMGDQGELPIAMALANVVPCSQWDELARVLVTLFDSRHLLYQLLWNMFSKEVELADSMQTLFRGNSLASKIMTFCFKVYGATYLQKLLDPLLRIVITSSDWQHVSFEVDPTRLEPSESLEENQRNLLQMTEKFFHAIISSSSEFPPQLRSVCHCLYQVVSQRFPQNSIGAVGSAMFLRFINPAIVSPYEAGILDKKPPPIIERGLKLMSKILQSIANHVLFTKEEHMRPFNDFVKSNFDAARRFFLDIASDCPTSDAVNHSLSFISDGNVLALHRLLWNNQEKIGQYLSSNRDHKAVGRRPFDKMATLLAYLGPPEH | soluble |
| THGAQHANPVVSGSVSPRPAPAKEQPSVAPSQSSVPPQPSIGEQRRQPETTAPTITEDKPEQTKVVPPTRPMATSTVGSEGRFTLRGIRNKQEQLQNNIQEVRTEMTESFDEEQLQLAWIEFAETKLSEEIHLKETMANCLPKLRPGTSAFEVEVLNSRQEEEINNVSARLLSFLADKLCNTTIRMNVRVSESTSLNRVPVSLDEKIERLNQENPLFDELRMRLGLSLV | not soluble |
| MTAELLVNVTPSETRVAYIDGGILQEIHIEREARRGIVGNIYKGRVSRVLPGMQAAFVDIGLDKAAFLHASDIMPHTECVAGEEQKQFTVRDISELVRQGQDLMVQVVKDPLGTKGARLTTDITLPSRYLVFMPGASHVGVSQRIESESERERLKKVVAEYCDEQGGFIIRTAAEGVGEAELASDAAYLKRVWTKVMERKKRPQTRYQLYGELALAQRVLRDFADAELDRIRVDSRLTYEALLEFTSEYIPEMTSKLEHYTGRQPIFDLFDVENEIQRALERKVELKSGGYLIIDQTEAMTTVDINTGAFVGHRNLDDTIFNTNIEATQAIARQLRLRNLGGIIIIDFIDMNNEDHRRRVLHSLEQALSKDRVKTSVNGFSALGLVEMTRKRTRESIEHVLCNECPTCHGRGTVKTVETVCYEIMREIVRVHHAYDSDRFLVYASPAVAEALKGEESHSLAEVEIFVGKQVKVQIEPLYNQEQFDVVMM | soluble |
| MNTGEMKINWVSRYMPLLNKIAEEYSREKPLSGFTVGMSIHLEAKTAYLAITLSKLGAKVVITGSNPLSTQDDVAEALRSKGITVYARRTHDESIYRENLMKVLDERPDFIIDDGGDLTVISHTEREEVLENLKGVSEETTTGVRRLKALEETGKLRVPVIAVNDSKMKYLFDNRYGTGQSTWDAIMRNTNLLVAGKNVVVAGYGWCGRGIALRAAGLGARVIVTEVDPVKAVEAIMDGFTVMPMKEAVKIADFVITASGNTDVLSKEDILSLKDGAVLANAGHFNVEIPVRVLEEIAVEKFEARPNVTGYTLENGKTVFLLAEGRLVNLAAGDGHPVEIMDLSFALQIFAVLYLLENHRKMSPKVYMLPDEIDERVARMKLDSLGVKIDELTEKQRRYLRSWQ | soluble |
| MRCPGCGAAIQFDDPKKPGYIPREVFEKRLEEGKEILCQRCFRMKHYGKLEPVEFDWDFKNQLKSYLGGFDVVVWVIDIFDFEGTYREDIAEILKGKRVIYVINKIDLLPRAVTVKEIKEWVKKRIKTKNTDDIRIVSAEKNFGLTSLVKYLSRLTDKALVVGVTNVGKSSLLNKICTHENTISPFPGTTLGILKRKVKEANLYLYDTPGIMTSDRILDLLDPECQKRVLPREELSRKTFKPDNGRTIFMGGLCRFDIHFETEKNPIFLLFSSKEVTFHETRRERADELMRNRLGDLLIPPCSKTKFENFKWKRETFTLKEGEELAVAGLGWMSVRRGPFTVEVTVPDSVKLVVREALVNPKRLEHHHHHH | soluble |
| DNSVDLYFLMGLSGSAQGHLSNVQTLGSDLLKALNEISRSGRIGFGSIVNMTFQHILKLTADSSQFQRELRKQLVSGKLATPKGQLDAVVQVAICLGEIGWRNGTRFLVLVTDNDFHLAKDKTLGTRQNTSDGRCHLDDGMYRSRGEPDYQSVVQLASKLAENNIQPIFVVPSRMVKTYEKLTTFIPKLTIGELSDDSSNVAQLIRNAYSKL | soluble |
| MQRVTITLDDDLLETLDSLSQRRGYNNRSEAIRDILRSALAQEATQQHGTQGFAVLSYVYEHEKRDLASRIVSTQHHHHDLSVATLHVHINHDDCLEIAVLKGDMGDVQHFADDVIAQRGVRHGHLQCLPKED | soluble |
| MWIEIICGLVIYKLVRRFFYDDEFSDVETSDSTALFSVAHRLEKLYGGKAYVGLRIPDADTASRQDIDVVLVTKGDVVVISVKNLSGIVTVTSDGSWVCEGGKHHTTETFPDPLAEVKKQASVLESYLEQRGVTLLEGNVSCKVVIPNPSFRTIHAFPSEVITYEDWQQLKPVSKSKISGWVKGAFSTGKEMQESSHQKLNFILGTAPTWDRVELKSSKIVLGEFLEFKGKQEDTLALRNIKRSKVDRVSIQKTSMFGL | not soluble |
| MKFTELTVKEFENFVQNPSLESHYFQVKENIATRESDGFQVVLLGVKDDDNRVIAASLFSKIPTMGSYVYYSNRGPVMDYSDLGLVDFYLKELDKYLHQHQCLYVKLDPYWLYQVYDKDINPLTEKNDALVNLFKSHGYDHHGFTTQYDSSSQVRWMGVLDLEGKTPASLRKEFDSQRKRNINKAINYGVKVRFLSKDEFGLFLDLYRETEARTGFASKTDDYFYNFIEHYGDKVLVPLAYIDLNEYIQHLQESLNDKENRRDDMMAKENKTDKQLKKIAELDKQIDHDKKELLQASELRQTDGEILNLASGVYFANAYEVNYFSGGSSEKYNQYMGPYAMHWHMINYCFDNGYDRYNFYGLSGDFTENSEDYGVYRFKRGFNVRIEELIGDFYKPINKVKYWLFNTLDRIRNKLKK | not soluble |
| MKIYVSRSRLKSNRRRLINETDVERLFSRNGFQIIHPQELTIKEQINLFRHAQVIAGPLGSAMYNCVFQTKPTKKLLLTYEKFIKMSDLLINTSTNGLLYYFAGTEHKQNKSPSNTEWLEHHHHHH | soluble |
| MVLIKEFRVVLPCSVQEYQVGQLYSVAEASKNETGGGEGIEVLKNEPYEKDGEKGQYTHKIYHLKSKVPAFVRMIAPEGSLVFHEKAWNAYPYCRTIVTNEYMKDDFFIKIETWHKPDLGTLENVHGLDPNTWKTVEIVHIDIADRSQVEPADYKADEDPALFQSVKTKRGPLGPNWKKELANSPDCPQMCAYKLVTIKFKWWGLQSKVENFIQKQEKRIFTNFHRQLFCWIDKWIDLTMEDIRRMEDETQKELETMRKRGSVRGTSAADV | soluble |
| MGQCRSANAEDAQEFSDVERAIETLIKNFHQYSVEGGKETLTPSELRDLVTQQLPHLMPSNCGLEEKIANLGSCNDSKLEFRSFWELIGEAAKSVKLERPVRGH | soluble |
| MGSDKIHHHHHHMSISPNPNIAEIAALFGETSRAAILTSLLDGRLHTASDLAYRAGITPQTASFHLGKLAEGGLVSVEKHGRHRYYQLANGEVASLLESFLVISPQPEVKSLKQSAQMVMLQKARTCYDHLAGKLGVGITDSMLDSGYLKKDGKEFVLTEAGVQFVINFGLDLESIKKKRRSLSHACLDWSERSYHLAGALGNQLMQHFFDLGWITPLPGIRAVKVTDQGKAGFKQYFNISL | not soluble |
| MNGQAKIAEPRRLYQQIADQIRELIDVGEFLPGTRLPAERELAQKLGVSRPSLREALIALEIDNTVEIRMGSGVYVSTEALQTTHHTKSLGDSPSELMQARAALEGATIVLAANRMTDETIAALRQILNTMQKEIEAGRKPLDQDRLFHVTIAEQSGNSVLARLVANLFDERHSPISAQLRVKFEDRDTWTRALQEHEAILAALELKDPLLAQAAMHIHLEGSKRRWVDS | soluble |
| QVKLQQSGGGLVKPGASLKLSCVTSGFTFRKFGMSWVRQTSDKCLEWVASISTGGYNTYYSDNVKGRFTISRENAKNTLYLQMSSLKSEDTALYYCTRGYSSTSYAMDYWGQGTTVTVSGIEGR | soluble |
| MGSDKIHHHHHHMDNKTQEKADFTLANAYGGVEMVRADYKGQAFSKHVHEGYTIGVIEKGAQRFYRSGEIHTADTNSIILVNADDVHTGESASSGGWQYRAMYPLPEHFENISNDLYDKGKFAPYFGSSVINDPLLTDQLRLLFNQVDNNASQLLTETIMYSLMLRLTLRHSSLRHVPKDISGSKAKLLRVKEYLDSYPAEDISLKQLAIIAGLSQYHFIRQFKKMFDLAPHSYQIQARLKKAKTLLKAGVKPVMVASDCGFHDQSHFNRHFKKALGTSPSKFQKQAVLYKN | not soluble |
| MSDTPSTSSVFLPTWPTRRTDANLYPNGSTKSDELVLHDYGLEEIPMRYHIEQPEEDYDPQNVKKLDLTHNSFVILRGLTTFNNVSVLDVSFNSLSALPEDIGTLSSLTTLIARNNLLEHLPKGLQLLENLEHLYLSGNRLEYVPPVILTMRKLKTLHLGGNYIDSCPSNISVLTLLRVLYLGGNRLREIPASIGCLDELENLGLCDNILETIPSTLGDLHYLETLSLHNNRLRTLPTDILNLRRLQQLSLRNNPLVHSFVHNMDLAPPSLKELSGRTVRQNYHKVPNLDEILPSDLVAYLGSACQCVNPECQGVYFDARVEHIKFVDFCGKYRVPLMQFLCSPRCSAGVPSVDYDTSSESEEEIEPIMRRVLLG | not soluble |
| EVENNFPCSLYKDEIMKEIERESKRIKLNDNDDEGNKKIIAPRIFISDDKDSLKCPCDPEMVSNSTCRFFVCKCVERRAEVTSNNEVVVKEEYKDEYADIPEHKPTYDKM | soluble |
| MQPQKNVTNKIAIHATTATVWDALVNPAKTKVYMFGCETVSDWKVGSELLWRGQHEGEDMVFVKGKILAIKPNKLLTYTVIDPFASYPDIPENYLNVTYKLEEQGPDTILTVTQDGFESAADGEKRYQDVNNKGEGWNPILVQIKALVESIQNLEHHHHHH | soluble |
| MDCVMKGLNKITCCLLAALLMPCAGHAENEQYGANFNNADIRQFVEIVGQHLGKTILIDPSVQGTISVRSNDTFSQQEYYQFFLSILDLYGYSVITLDNGFLKVVRSANVKTSPGMIADSSRPGVGDELVTRIVPLENVPARDLAPLLRQMMDAGSVGNVVHYEPSNVLILTGRASTINKLIEVIKRVDVIGTEKQQIIHLEYASAEDLAEILNQLISESHGKSQMPALLSAKIVADKRTNSLIISGPEKARQRITSLLKSLDVEESEEGNTRVYYLKYAKATNLVEVLTGVSEKLKDEKGNARKPSSSGAMDNVAITADEQTNSLVITADQSVQEKLATVIARLDIRRAQVLVEAIIVEVQDGNGLNLGVQWANKNVGAQQFTNTGLPIFNAAQGVADYKKNGGITSANPAWDMFSAYNGMAAGFFNGDWGVLLTALASNNKNDILATPSIVTLDNKLASFNVGQDVPVLSGSQTTSGDNVFNTVERKTVGTKLKVTPQVNEGDAVLLEIEQEVSSVDSSSNSTLGPTFNTRTIQNAVLVKTGETVVLGGLLDDFSKEQVSKVPLLGDIPLVGQLFRYTSTERAKRNLMVFIRPTIIRDDDVYRSLSKEKYTRYRQEQQQRIDGKSKALVGSEDLPVLDENTFNSHAPAPSSRLEHHHHHH | not soluble |
| MSLEARVLTGAALEARLDEVARLRIAVFRDWPYLYEGSMDYERSYLSTYRTSPGAILVGAFDGDRLVGASTGTPMEDHAEDFAAAFARTGLPLDEIFYCAESVLLPDYRGHGMGHRFFDLREAHARALGRRHSAFCSVIRPEDHPLRPAAARSNEPFWRKRGYAPLPGVVAHYGWTDVGEERETQKPLQFWIRDL | not soluble |
| MLNILDIITDWIKEILRDCIMGNLDGMFDQINNEVGEVAANVGTTPAAWNAGVFSMIRNLSDT | not soluble |
| MTFEAITREWYQRRYDRWSESYRLEMMSTFESDVFPYIGYRPIKEIKPLELMAVLSKLEKRGATEKMRKVRQRCGEVWKYAIITGRAEYNPAPDLASAFAPHKREHLEHHHHHH | not soluble |
